Values of other authors as cited in paper PMC12405408.

Target: CaSR (Homo sapiens) (UniProt P41180)
Chain of UniProt P41180 (P41180 20-1078): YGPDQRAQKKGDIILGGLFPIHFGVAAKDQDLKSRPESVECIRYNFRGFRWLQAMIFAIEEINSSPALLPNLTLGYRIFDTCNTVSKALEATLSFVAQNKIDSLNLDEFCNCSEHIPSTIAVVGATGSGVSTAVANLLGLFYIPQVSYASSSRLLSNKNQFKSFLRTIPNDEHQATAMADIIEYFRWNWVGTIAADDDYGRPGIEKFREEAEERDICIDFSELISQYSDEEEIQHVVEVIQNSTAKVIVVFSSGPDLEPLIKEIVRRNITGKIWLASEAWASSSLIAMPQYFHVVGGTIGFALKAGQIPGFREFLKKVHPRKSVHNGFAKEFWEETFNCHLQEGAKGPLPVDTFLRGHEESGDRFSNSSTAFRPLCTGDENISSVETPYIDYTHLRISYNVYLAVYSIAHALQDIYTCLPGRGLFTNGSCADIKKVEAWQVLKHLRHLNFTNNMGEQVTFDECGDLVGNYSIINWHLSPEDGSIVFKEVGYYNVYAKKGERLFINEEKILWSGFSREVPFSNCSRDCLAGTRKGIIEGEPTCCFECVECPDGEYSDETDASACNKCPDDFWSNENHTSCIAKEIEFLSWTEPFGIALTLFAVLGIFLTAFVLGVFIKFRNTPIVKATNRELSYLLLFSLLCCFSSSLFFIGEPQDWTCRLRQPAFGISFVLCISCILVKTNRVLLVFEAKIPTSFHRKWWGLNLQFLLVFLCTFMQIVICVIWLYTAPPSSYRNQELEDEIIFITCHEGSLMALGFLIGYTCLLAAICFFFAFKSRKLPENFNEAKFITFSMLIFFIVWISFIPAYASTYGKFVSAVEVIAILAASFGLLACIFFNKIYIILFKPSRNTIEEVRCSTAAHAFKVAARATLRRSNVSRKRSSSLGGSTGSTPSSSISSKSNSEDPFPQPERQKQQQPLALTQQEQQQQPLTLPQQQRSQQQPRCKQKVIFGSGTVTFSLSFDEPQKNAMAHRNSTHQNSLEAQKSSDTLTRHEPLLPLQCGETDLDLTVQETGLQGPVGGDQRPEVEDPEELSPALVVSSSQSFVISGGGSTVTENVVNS

EWVPVTK peptide
Kd: 3.2 nM
